Drawing on article PMC7193404, “FHF1 is a bona fide fibroblast growth factor that activates cellular signaling in FGFR-dependent manner” (Cell Communication and Signaling : CCS, 2020), this text covers Kd for 1 molecule.

The target in this test is T1, extracellular region of FGFR1 fused to the Fc fragment (UniProt P11362 22-376).
T1 construct: extracellular region of FGFR1; also called FGFR1-Fc; source: produced in mammalian cells; as described previously [27-29]
T1 sequence (looked up): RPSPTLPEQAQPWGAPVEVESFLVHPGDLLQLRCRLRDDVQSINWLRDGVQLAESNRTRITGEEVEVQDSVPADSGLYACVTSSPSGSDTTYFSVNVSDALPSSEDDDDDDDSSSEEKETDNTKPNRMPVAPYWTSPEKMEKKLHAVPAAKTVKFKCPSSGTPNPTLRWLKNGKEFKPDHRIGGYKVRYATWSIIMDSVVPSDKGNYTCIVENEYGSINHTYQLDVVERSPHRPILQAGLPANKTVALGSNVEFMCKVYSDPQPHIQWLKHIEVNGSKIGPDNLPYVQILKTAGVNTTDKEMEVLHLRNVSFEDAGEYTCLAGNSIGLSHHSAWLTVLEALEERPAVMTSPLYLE
Description: SPR; Biacore 3000, 25 °C; FGFR1-Fc amine-coupled at low density (about 1000 RU) on CM4; FHF1 0.1-3.2 uM at 30 ul/min; PBS, 0.05% Tween 20, 0.2% BSA, 0.02% NaN3, pH 7.4; KD from fitted saturation binding curve (equilibrium responses); 1:1 model did not fit. Particulars: both partners purified.

B1: fibroblast growth factor homologous factor 1, short isoform (FHF1b) (ligand, human, UniProt P61328-2 1-181, looked up)
chain: MESKEPQLKGIVTRLFSQQGYFLQMHPDGTIDGTKDENSDYTLFNLIPVGLRVVAIQGVKASLYVAMNGEGYLYSSDVFTPECKFKESVFENYYVIYSSTLYRQQESGRAWFLGLNKEGQIMKGNRVKKTKPSSHFVPKPIEVCMYREPSLHEIGEKQGRSRKSSGTPTMNGGKVVNQDST
notes: short isoform (FHF1b) of human FHF1 (FGF12); construct in pDEST17; Construct from F. Nakayama; also called FGF12; source: E. coli BL21 CodonPlus (DE3) RIL, purified (His-Trap, desalting column)
The molecule B1 registered a Kd of 612 nM.
